B1: Receptor-interacting serine/threonine-protein kinase 2, residues 438 to 518; numbered along this chain, O43353 (parent)
chain: QWIQSKREDIVNQMTEACLNQSLDALLSRDLIMKEDYELVSTKPTRTSKVRQLLDTTDIQGEEFAKVIVQKLKDNKQMGLQ

± gives the uncertainty stated by the source.

The variants in the data set derive from B1. In words: abundance fitness (aPCA) (normalised: wild type 0, dead -1); higher = more abundant; growth selection in yeast, the domain comes from the species named. Particulars: Homo sapiens.
Regarding QWIQSKREDIVNQMTEACLNQSLDALLSRDLIMKEDYELVSVKPTRTSKVRQLLDTTDIQGEEFAKVIVQKLKDNKQMGLQ, the abundance fitness is -0.415 ± 0.061.

As to QWIQSKREDIVNQMTEACLNQSLDALLSRDLIMKEDYELVSNKPTRTSKVRQLLDTTDIQGEEFAKVIVQKLKDNKQMGLQ, the abundance fitness is -0.115 ± 0.15.

With QWIQSKREDIVNQMTEACLNQSLDALLSRDLIMKEDYELVSMKPTRTSKVRQLLDTTDIQGEEFAKVIVQKLKDNKQMGLQ, the abundance fitness was 0.012 ± 0.1.

As for QWIQSKREDIVNQMTEACLNQSLDALLSRDLIMKEDYELVSIKPTRTSKVRQLLDTTDIQGEEFAKVIVQKLKDNKQMGLQ, the abundance fitness was -0.225 ± 0.16.

On to QWIQSKREDIVNQMTEACLNQSLDALLSRDLIMKEDYELVSTKLTRTSKVRQLLDTTDIQGEEFAKVIVQKLKDNKQMGLQ, for which the abundance fitness is -0.263 ± 0.067.

Regarding QWIQSKREDIVNQMTEACLNQSLDALLSRDLIMKEDYELVSTKVTRTSKVRQLLDTTDIQGEEFAKVIVQKLKDNKQMGLQ, the abundance fitness is -0.214 ± 0.071.

For QWIQSKREDIVNQMTEACLNQSLDALLSRDLIMKEDYELVSTKQTRTSKVRQLLDTTDIQGEEFAKVIVQKLKDNKQMGLQ, the abundance fitness was -0.169 ± 0.11.

On to QWIQSKREDIVNQMTEACLNQSLDALLSRDLIMKEDYELVSTKETRTSKVRQLLDTTDIQGEEFAKVIVQKLKDNKQMGLQ, for which the abundance fitness was -0.141 ± 0.1.

As for QWIQSKREDIVNQMTEACLNQSLDALLSRDLIMKEDYELVSTKYTRTSKVRQLLDTTDIQGEEFAKVIVQKLKDNKQMGLQ, the abundance fitness is -0.2 ± 0.26.

For the variant QWIQSKREDIVNQMTEACLNQSLDALLSRDLIMKEDYELVSTKWTRTSKVRQLLDTTDIQGEEFAKVIVQKLKDNKQMGLQ, the abundance fitness is -0.483 ± 0.1.

On to QWIQSKREDIVNQMTEACLNQSLDALLSRDLIMKEDYELVSTKGTRTSKVRQLLDTTDIQGEEFAKVIVQKLKDNKQMGLQ, for which the abundance fitness was -0.314 ± 0.064.

As for QWIQSKREDIVNQMTEACLNQSLDALLSRDLIMKEDYELVSTKRTRTSKVRQLLDTTDIQGEEFAKVIVQKLKDNKQMGLQ, the abundance fitness is -0.265 ± 0.052.

For the variant QWIQSKREDIVNQMTEACLNQSLDALLSRDLIMKEDYELVSTKSTRTSKVRQLLDTTDIQGEEFAKVIVQKLKDNKQMGLQ, the abundance fitness was -0.304 ± 0.075.

QWIQSKREDIVNQMTEACLNQSLDALLSRDLIMKEDYELVSTKCTRTSKVRQLLDTTDIQGEEFAKVIVQKLKDNKQMGLQ: the abundance fitness is -0.491 ± 0.15.

Turning to QWIQSKREDIVNQMTEACLNQSLDALLSRDLIMKEDYELVSTKHTRTSKVRQLLDTTDIQGEEFAKVIVQKLKDNKQMGLQ, the abundance fitness was -0.761 ± 0.2.

Consider QWIQSKREDIVNQMTEACLNQSLDALLSRDLIMKEDYELVSTKTTRTSKVRQLLDTTDIQGEEFAKVIVQKLKDNKQMGLQ, for which the abundance fitness is -0.283 ± 0.1.

As to QWIQSKREDIVNQMTEACLNQSLDALLSRDLIMKEDYELVSTKATRTSKVRQLLDTTDIQGEEFAKVIVQKLKDNKQMGLQ, the abundance fitness was -0.181 ± 0.079.

As to QWIQSKREDIVNQMTEACLNQSLDALLSRDLIMKEDYELVSTKNTRTSKVRQLLDTTDIQGEEFAKVIVQKLKDNKQMGLQ, the abundance fitness is -0.196 ± 0.29.

Regarding QWIQSKREDIVNQMTEACLNQSLDALLSRDLIMKEDYELVSTKKTRTSKVRQLLDTTDIQGEEFAKVIVQKLKDNKQMGLQ, the abundance fitness was -0.298 ± 0.16.

As to QWIQSKREDIVNQMTEACLNQSLDALLSRDLIMKEDYELVSTKPIRTSKVRQLLDTTDIQGEEFAKVIVQKLKDNKQMGLQ, the abundance fitness was -0.87 ± 0.21.

With QWIQSKREDIVNQMTEACLNQSLDALLSRDLIMKEDYELVSTKPRRTSKVRQLLDTTDIQGEEFAKVIVQKLKDNKQMGLQ, the abundance fitness was -0.879 ± 0.07.

For the variant QWIQSKREDIVNQMTEACLNQSLDALLSRDLIMKEDYELVSTKPVRTSKVRQLLDTTDIQGEEFAKVIVQKLKDNKQMGLQ, the abundance fitness is -0.56 ± 0.083.

With QWIQSKREDIVNQMTEACLNQSLDALLSRDLIMKEDYELVSTKPWRTSKVRQLLDTTDIQGEEFAKVIVQKLKDNKQMGLQ, the abundance fitness was -0.571 ± 0.1.

On to QWIQSKREDIVNQMTEACLNQSLDALLSRDLIMKEDYELVSTKPARTSKVRQLLDTTDIQGEEFAKVIVQKLKDNKQMGLQ, for which the abundance fitness is -0.476 ± 0.082.

As for QWIQSKREDIVNQMTEACLNQSLDALLSRDLIMKEDYELVSTKPYRTSKVRQLLDTTDIQGEEFAKVIVQKLKDNKQMGLQ, the abundance fitness was -1.11 ± 0.47.

Take QWIQSKREDIVNQMTEACLNQSLDALLSRDLIMKEDYELVSTKPCRTSKVRQLLDTTDIQGEEFAKVIVQKLKDNKQMGLQ: the abundance fitness is -0.308 ± 0.11.

For QWIQSKREDIVNQMTEACLNQSLDALLSRDLIMKEDYELVSTKPERTSKVRQLLDTTDIQGEEFAKVIVQKLKDNKQMGLQ, the abundance fitness was -0.364 ± 0.25.

On to QWIQSKREDIVNQMTEACLNQSLDALLSRDLIMKEDYELVSTKPNRTSKVRQLLDTTDIQGEEFAKVIVQKLKDNKQMGLQ, for which the abundance fitness is -0.011 ± 0.23.

With QWIQSKREDIVNQMTEACLNQSLDALLSRDLIMKEDYELVSTKPHRTSKVRQLLDTTDIQGEEFAKVIVQKLKDNKQMGLQ, the abundance fitness was -0.568 ± 0.22.

Turning to QWIQSKREDIVNQMTEACLNQSLDALLSRDLIMKEDYELVSTKPKRTSKVRQLLDTTDIQGEEFAKVIVQKLKDNKQMGLQ, the abundance fitness was -0.999 ± 0.24.

For QWIQSKREDIVNQMTEACLNQSLDALLSRDLIMKEDYELVSTKPPRTSKVRQLLDTTDIQGEEFAKVIVQKLKDNKQMGLQ, the abundance fitness is -0.579 ± 0.092.

For QWIQSKREDIVNQMTEACLNQSLDALLSRDLIMKEDYELVSTKPLRTSKVRQLLDTTDIQGEEFAKVIVQKLKDNKQMGLQ, the abundance fitness was -0.696 ± 0.069.

In the case of QWIQSKREDIVNQMTEACLNQSLDALLSRDLIMKEDYELVSTKPQRTSKVRQLLDTTDIQGEEFAKVIVQKLKDNKQMGLQ, the abundance fitness was -0.652 ± 0.1.

With QWIQSKREDIVNQMTEACLNQSLDALLSRDLIMKEDYELVSTKPDRTSKVRQLLDTTDIQGEEFAKVIVQKLKDNKQMGLQ, the abundance fitness is 0.029 ± 0.14.

These data come from the Human Domainome abundance scans (Beltran et al. 2025).
